Measured values taken from the supplement of paper PMC10567573.

B1: PSD2 (parent)
chain: LTHFSRRYCQCNPDDSTSEDGIHT
B2: C22orf31 (parent)
chain: YSLELGKAIKQKLWEALCSQGAIS

Variants of: B1
Assay: protein stability index of a GFP-peptide fusion (GPS, HEK-293T) (PSI 1-6); higher = more stable
Conditions: c terminus: a fixed tail appended
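Further: lentivirally expressed fusions sorted by FACS into six bins by GFP to DsRed ratio, PSI derived from sequencing read proportions per bin multiplied by bin number.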

Protein stability index of substitutions, site by site:
S16: W 1.77; N 3.06; A 2.57; D 3.17; F 2.77; Q 3.82; Y 2.88; P 2.86; H 2.95; I 3.18; M 2.64; E 3.96; V 3.15; R 2.61; K 3.48; C 2.75; T 2.94; L 3.15; G 3.09
D20: T 2.86; R 2.27; Q 2.61; C 3.98; L 2.31; Y 1.81; H 2.99; G 2.71; W 1.46; P 2.35; E 3.64; N 2.5; K 2.74; F 2.69; M 2.65; S 2.42; I 1.97
E19: W 1.87; N 2.84; F 1.94; C 3.04; S 2.44; D 3.34; A 2.36; T 3.02; K 2.81; Y 1.93; M 1.94; G 3.03; L 2.15; H 2.95; V 3.33; Q 3.39; I 2.2; R 1.59; P 2.37
D14: Q 2.54; G 2.35; F 2.04; V 2; W 1.59; A 2.09; H 2.14; P 2.06; C 2.8; E 3.02; L 2.13; Y 1.99; M 2.27; S 2.49; T 2.13; I 2.08; N 2.45; R 2.24; K 2.49
H23: M 3.82; F 2.01; E 3.91; A 3.66; D 3.58; P 3.9; I 3.21; Q 3.73; Y 3.58; G 3.69; V 2.93; W 2.62; K 2.92; C 3.16; L 3.73; N 3.64; R 2.95; S 4.2; T 2.75
C11: M 3.84; F 3.12; Q 4.71; E 4.38; N 4.41; D 4.31; P 4.41; T 4.31; L 3.65; H 4.17; R 4.18; V 4.5; G 4.56; I 4.31; S 4.61; K 4.52; A 4.22; Y 3.74
R7: H 3.8; V 3.13; Y 2.92; N 3.75; Q 4.57; T 4.01; I 3.64; P 4.46; W 2.32; M 3.84; L 3.74; K 3.53; S 3.51; G 2.93
Y8: A 3.75; E 5.36; S 3.93; D 4.72; W 2.36; M 3.62; C 3.01; K 3.66; P 4.36; H 3.88; V 3.8; F 3.27; R 3.7; L 3.86; I 3.48; G 3.57; Q 3.98; T 4.18; N 4.74
I22: P 2.9; L 3.24; K 3.12; W 2.43; A 3.91; Y 3.29; M 3.49; V 3.71; H 3.7; R 3.22; N 3.98; G 3.66; S 3.87; D 4.27; Q 3.85; E 3.87; T 3.59; F 2.72
T17: K 3.6; N 3.6; M 3.09; Y 2.39; S 2.78; P 3.68; Q 3.89; D 4.02; E 3.41; V 2.78; G 2.7; R 2.78; I 2.85; H 3.18; C 2.72; W 2.17; F 2.77; A 3.02; L 2.66
Q10: N 2.18; V 2.9; Y 3.01; K 2.71; I 1.97; S 2.55; A 3.72; R 2.24; F 2.25; C 2.63; H 2.88; D 3.84; P 3.41; W 2.51; E 3.87; L 2.63; T 3.35; G 3.21; M 2.19
D15: W 2.14; M 3.21; R 2.63; G 2.61; T 2.79; N 2.41; Q 2.35; Y 3.23; L 2.26; F 3.21; C 2.91; S 2.96; A 2.69; P 2.46; H 2.86; K 2.28; V 2.47; I 2.1; E 4.1
P13: C 2.73; A 2.83; N 3.38; L 2.71; G 3.91; I 2.68; W 1.94; T 3.5; H 2.76; S 2.84; F 2.68; Y 2.44; K 3.02; V 3.11; Q 3.06; R 3.19; M 3.2; D 4.03
T24: M 2.52; Q 3.37; L 2.38; S 3.02; I 3.05; V 3.36; G 3.27; E 4.08; Y 2.34; F 2.08; W 2.26; R 2.27; A 3.46; K 2.61; D 3.86; P 3.82; C 2.68; N 3.4; H 2.5
N12: A 3.34; T 3.69; F 2.69; H 3.67; M 3.52; S 4.01; R 3.21; G 2.83; Y 2.39; C 2.82; D 4.66; P 3.63; W 3.13; V 3.11; Q 3.13; K 3.37; I 2.77; L 2.96; E 4
S18: K 2.88; N 3.67; H 3.5; F 2.63; V 2.35; R 1.89; Y 2.35; M 2.97; G 2.93; C 3.69; I 2.99; W 2.28; T 2.57; E 3.17; P 3.58; D 4.03; A 3.7; Q 3.43; L 2.35
C9: E 4.16; S 4.78; R 4.1; V 4.13; H 3.84; A 4.23; T 4.12; P 4.64; K 4.39; L 3.67; M 4.16; N 4.09; Y 4.06; W 3.57; Q 5.06; G 4.15; F 3.83; I 3.96
G21: N 3.33; T 4.09; V 2.79; A 3.57; C 2.91; L 3.25; I 2.63; Q 3.25; M 2.86; E 4.26; W 1.96; S 3.64; K 2.95; H 3.34; P 3.57; F 2.69; D 3.73; Y 2.68; R 2.93

Variants of: B2
Assay: as above
Conditions: c terminus: a fixed tail appended

Protein stability index: each site, then its substitutions
Y1: C 2.58; D 1.87; A 1.69
